The values below come from IntAct's records for PubMed 25260751.

First the molecules themselves.
B1: Mitogen-activated protein kinase kinase kinase 1 (Rattus norvegicus (Rat)), Q62925 (parent)
chain: MAAAAGDRASSSGFPGAAAASPEAGGGGGALQGSGAPAAGAGLLRETGSAGRERADWRRQQLRKVRSVELDQLPEQPLFLTASPPCPSTSPSPEPADAAAGASGFQPAAGPPPPGAASRCGSHSAELAAARDSGARSPAGAEPPSAAAPSGREMENKETLKGLHKMDDRPEERMIREKLKATCMPAWKHEWLERRNRRGPVVVKPIPIKGDGSEMSNLAAELQGEGQAGSAAPAPKGRRSPSPGSSPSGRSGKPESPGVRRKRVSPVPFQSGRITPPRRAPSPDGFSPYSPEETSRRVNKVMRARLYLLQQIGPNSFLIGGDSPDNKYRVFIGPQNCSCGRGTFCIHLLFVMLRVFQLEPSDPMLWRKTLKNFEVESLFQKYHSRRSSRIKAPSRNTIQKFVSRMSNCHTLSSSSTSTSSSENSIKDEEEQMCPICLLGMLDEESLTVCEDGCRNKLHHHCMSIWAEECRRNREPLICPLCRSKWRSHDFYSHELSSPVDSPTSLRGVQQPSSPQQPVAGSQRRNQESNFNLTHYGTQQIPPAYKDLAEPWIQAFGMELVGCLFSRNWNVREMALRRLSHDVSGALLLANGESTGTSGGGSGGSLSAGAASGSSQPSISGDVVEAFCSVLSIVCADPVYKVYVAALKTLRAMLVYTPCHSLAERIKLQRLLRPVVDTILVKCADANSRTSQLSISTLLELCKGQAGELAVGREILKAGSIGVGGVDYVLSCILGNQAESNNWQELLGRLCLIDRLLLEISAEFYPHIVSTDVSQAEPVEIRYKKLLSLLAFALQSIDNSHSMVGKLSRRIYLSSARMVTTVPPLFSKLVTMLSASGSSHFARMRRRLMAIADEVEIAEVIQLGSEDTLDGQQDSSQALAPPRYPESSSLEHTAHVEKTGKGLKATRLSASSEDISDRLAGVSVGLPSSATTEQPKPTVQTKGRPHSQCLNSSPLSPPQLMFPAISAPCSSAPSVPAGSVTDASKHRPRAFVPCKIPSASPQTQRKFSLQFQRTCSENRDSEKLSPVFTQSRPPPSSNIHRAKASRPVPGSTSKLGDASKNSMTLDLNSASQCDDSFGSGSNSGSAVIPSEETAFTPAEDKCRLDVNPELNSSIEDLLEASMPSSDTTVTFKSEVAVLSPEKAESDDTYKDDVNHNQKCKEKMEAEEEEALAIAMAMSASQDALPIVPQLQVENGEDIIIIQQDTPETLPGHTKANEPYREDTEWLKGQQIGLGAFSSCYQAQDVGTGTLMAVKQVTYVRNTSSEQEEVVEALREEIRMMSHLNHPNIIRMLGATCEKSNYNLFIEWMAGASVAHLLSKYGAFKESVVINYTEQLLRGLSYLHENQIIHRDVKGANLLIDSTGQRLRIADFGAAARLASKGTGAGEFQGQLLGTIAFMAPEVLRGQQYGRSCDVWSVGCAIIEMACAKPPWNAEKHSNHLALIFKIASATTAPSIPSHLSPGLRDVALRCLELQPQDRPPSRELLKHPVFRTTW

This assay covers variants of B1. The note with it: with ube2n_human UBE2N.
Turning to L438A;M440A, the “effect of a mutation on the interaction” value is “disrupting interaction”.
